Here are results for 34 molecules from US20210324028A1 (Pfizer, published 2021).

Numbering of substitutions follows the chain as printed. Numbers in names are those of the source.

To fix the notation:
T1: human IL-2Rβ (human, UniProt P14784 27-240, limits assumed)
T1 construct: also called hIL-2Rβ; IL-2 receptor beta
T1 sequence (looked up): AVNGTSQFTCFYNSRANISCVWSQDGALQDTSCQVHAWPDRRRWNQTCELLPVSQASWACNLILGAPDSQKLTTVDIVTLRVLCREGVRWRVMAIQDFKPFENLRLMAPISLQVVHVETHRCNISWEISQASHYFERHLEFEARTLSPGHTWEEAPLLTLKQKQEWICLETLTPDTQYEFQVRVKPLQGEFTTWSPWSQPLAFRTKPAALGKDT

B1: hIL-15 V49R/K10N (ligand)
chain: NWVNVISDLNKIEDLIQSMHIDATLYTESDVHPSCKVTAMKCFLLELQRISLESGDASIHDTVENLIILANNSLSSNGNVTESGCKECEELEEKNIKEFLQSFVHIVQMFINTGGGGSGHHHHHHHHGGGLNDIFEAQKIEWHE
B2: hIL-15 V49R/N1E (ligand)
chain: B1 chain with N1E, N10K
B3: hIL-15 V49R/K11E (ligand)
chain: B1 chain with N10K, K11E
B4: hIL-15 V49R/K10R (ligand)
chain: B1 chain with N10R
B5: hIL-15 V49R/L69T (ligand)
chain: B1 chain with N10K, L69T
B6: hIL-15 V49R/K11S (ligand)
chain: B1 chain with N10K, K11S
B7: hIL-15 V49R/L69M (ligand)
chain: B1 chain with N10K, L69M
B8: hIL-15 V49R/K11Q (ligand)
chain: B1 chain with N10K, K11Q
B9: hIL-15 V49R/L69E (ligand)
chain: B1 chain with N10K, L69E
B10: hIL-15 V49R/K10S (ligand)
chain: B1 chain with N10S
B11: hIL-15 V49R/K11T (ligand)
chain: B1 chain with N10K, K11T
B12: hIL-15 V49R/L69S (ligand)
chain: B1 chain with N10K, L69S
B13: hIL-15 V49R/K10Q (ligand)
chain: B1 chain with N10Q
B14: hIL-15 V49R/K11I (ligand)
chain: B1 chain with N10K, K11I
B15: hIL-15 V49R/L69D (ligand)
chain: B1 chain with N10K, L69D
B16: hIL-15 V49R/K10W (ligand)
chain: B1 chain with N10W
B17: hIL-15 V49R/M109S (ligand)
chain: B1 chain with N10K, M109S
B18: hIL-15 V49R/L69V (ligand)
chain: B1 chain with N10K, L69V
B19: hIL-15 V49R/K11N (ligand)
chain: B1 chain with N10K, K11N
B20: hIL-15 V49R/K11R (ligand)
chain: B1 chain with N10K, K11R
B21: hIL-15 V49R/K11A (ligand)
chain: B1 chain with N10K, K11A
B22: hIL-15 V49R/N1G (ligand)
chain: B1 chain with N1G, N10K
B23: hIL-15 V49R/M109D (ligand)
chain: B1 chain with N10K, M109D
B24: hIL-15 V49R/K11D (ligand)
chain: B1 chain with N10K, K11D
B25: hIL-15 V49R/L69I (ligand)
chain: B1 chain with N10K, L69I
B26: hIL-15 V49R/N1A (ligand)
chain: B1 chain with N1A, N10K
B27: hIL-15 V49R/M109A (ligand)
chain: B1 chain with N10K, M109A
B28: hIL-15 V49R/L69A (ligand)
chain: B1 chain with N10K, L69A
B29: hIL-15 V49R/K11L (ligand)
chain: B1 chain with N10K, K11L
B30: hIL-15 V49R/N1D (ligand)
chain: B1 chain with N1D, N10K
B31: hIL-15 V49R/K11H (ligand)
chain: B1 chain with N10K, K11H
B32: hIL-15 V49R/K11Y (ligand)
chain: B1 chain with N10K, K11Y
B33: hIL-15 V49R/K11V (ligand)
chain: B1 chain with N10K, K11V
B34: hIL-15 V49R/M109K (ligand)
chain: B1 chain with N10K, M109K

The target of one test is T2, human IL-15Rα (human, UniProt Q13261 31-205, limits assumed).
T2 construct: also called hIL-15Rα; IL-15 receptor alpha
T2 sequence (Q13261 31-205 limits assumed): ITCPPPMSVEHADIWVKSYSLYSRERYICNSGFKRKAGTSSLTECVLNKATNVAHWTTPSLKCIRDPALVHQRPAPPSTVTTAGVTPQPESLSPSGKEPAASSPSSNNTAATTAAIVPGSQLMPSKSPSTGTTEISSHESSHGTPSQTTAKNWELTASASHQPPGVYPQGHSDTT
The test is described as follows: SPR, steady state.
For the molecule B1, the Kd is 128 nM.
Regarding B2, the Kd was found to be 171 nM.
For B3, binding was characterised by a dissociation constant (Kd) of 159 nM.
The same measure, in the same setting: to B4 belongs 94.5 nM; to B5, 63.6 nM; to B6, 194 nM.
The molecule B7 displayed a Kd of 74.5 nM.
On the same count and under the same terms, with B8 the figure was 156 nM; with B9, 47.8 nM; with B10, 195 nM.
Consider B11, for which the Kd amounted to 169 nM.
Molecule B12 showed a dissociation constant Kd of 78.2 nM.
Still for that read-out and setting: with B13 the figure was 100 nM.
In the case of B14, the Kd was determined as 95.8 nM.
Molecule B15 gave a Kd of 65.6 nM.
As for B16, binding was put at a Kd of 101 nM.
In turn, B17 displayed a Kd of 190 nM.
Same read-out and setting: to B18 belongs 85.5 nM; to B19, 217 nM; to B20, 140 nM.
Same read-out and setting: to B21 belongs 191 nM; to B22, 160 nM; to B23, 288 nM.
In turn, B24 returned a dissociation constant (Kd) of 242 nM.
Regarding B25, the Kd turned out to be 93.1 nM.
In turn, B26 had a Kd of 175 nM.
Turning to B27, the Kd came to 198 nM.
Still for that read-out and setting: to B28 belongs 82.9 nM; to B29, 142 nM; to B30, 105 nM.
On the same count and under the same terms, with B31 the figure was 147 nM.
Turning to B32, binding was characterised by a dissociation constant (Kd) of 219 nM.
In the case of B33, the Kd turned out to be 142 nM.
On to B34, for which binding was characterised by a dissociation constant (Kd) of 215 nM.

Another test deals with T1, human IL-2Rβ. The test is described as follows: SPR, steady state.
Turning to B1, the Kd amounted to 230 nM.
Same read-out and setting: to B2 belongs 340 nM.
Same read-out and setting: to B3 belongs 160 nM; to B4, 146 nM; to B5, above 1000 nM.
On to B6, for which the Kd came to 453 nM.
Molecule B7 came in with a Kd above 1000 nM.
As to B8, the Kd came to 107 nM.
B9: the Kd is above 1000 nM.
For B10, the affinity, expressed as Kd, was 496 nM.
On to B11, for which the Kd stood at 225 nM.
With B12, the Kd is above 500 nM.
Molecule B13 yielded a Kd of 250 nM.
B14: the Kd amounted to 76 nM.
The molecule B15 displayed a Kd above 500 nM.
As for B16, the affinity, expressed as Kd, was 185 nM.
Turning to B17, the Kd worked out at 362 nM.
The molecule B18 yielded a Kd above 1000 nM.
For the molecule B19, the Kd amounted to 291 nM.
B20 registered a Kd of 138 nM.
Take B21: binding was put at a Kd of 206 nM.
Take B22: the Kd is above 500 nM.
As to B23, the Kd is 339 nM.
On to B24, for which the Kd is above 500 nM.
Molecule B25 returned a Kd of 306 nM.
B26 came in with a dissociation constant Kd of 398 nM.
For B27, the Kd was above 500 nM.
The molecule B28 returned a Kd above 500 nM.
In turn, B29 returned an equilibrium dissociation constant (Kd) of 92.2 nM.
Turning to B30, binding was put at a Kd of 311 nM.
Turning to B31, the Kd was 104 nM.
Consider B32, for which binding was put at a Kd of 143 nM.
Take B33: the Kd was 110 nM.
B34 displayed a Kd above 500 nM.
